Measurements as given in patent US6451528B1, “Sperm-specific AKAP protein genes and uses” (Oregon Health & Sciences University, priority 1999, dated 2002).

Target: T1, RIIα binding to AKAP110 (Mus musculus, UniProt P12367)
T1 construct: made in house; host or cells: E. coli
Assay: RII overlay binding assay with 32P-labeled RIIα
Conditions: peptide included in the binding assay at a concentration of 1 μM; results in FIG. 4D
Method: The identity of AKAP110 in the extracts prepared as described above was determine using an RII overlay assay. This assay was based on previous experiments which had shown that PKA anchoring proteins could be specifically detected after electrophoretic separation by overlay with labeled RII subunit of mammalian PKA (see Vijayaraghavan et al., 1997, J. Biol. Chem. 272; 4747-4752). These assays were performed as follows. Polyacrylamide gel electrophoresis containing sodium dodecyl sulfate (SDS/PAGE) was performed as described in Johnson et al. (1997, Devel. Biol. 192: 340-350) and Visconti et al. (1997, Devel. Biol. 192: 351-363). Approximately […] protein per lane was loaded on a 10% gel and electrophoresed overnight at a constant current of 8mA. After electrophoresis, protein bands were transferred to Immobilon P (polyvinylidene difluoride, obtained from Millipore, Bedford, Mass.) as described in the Johnson and Visconti references. […]
The conserved regions of sequence are expected to correspond to functional domains. The portion of the sequence corresponding to the RII binding domain was determined using an RII overlay assay as follows. […] This blot was then hybridized with ^32P-labeled RIIα (results shown in FIG. 4A) or with horse radish peroxidase-conjugated S-protein that detects an S-tag expressed as a fusion protein by the pET30A vector (results shown in FIG. 4B). […]

T1 sequence (P12367 2-401 limits assumed): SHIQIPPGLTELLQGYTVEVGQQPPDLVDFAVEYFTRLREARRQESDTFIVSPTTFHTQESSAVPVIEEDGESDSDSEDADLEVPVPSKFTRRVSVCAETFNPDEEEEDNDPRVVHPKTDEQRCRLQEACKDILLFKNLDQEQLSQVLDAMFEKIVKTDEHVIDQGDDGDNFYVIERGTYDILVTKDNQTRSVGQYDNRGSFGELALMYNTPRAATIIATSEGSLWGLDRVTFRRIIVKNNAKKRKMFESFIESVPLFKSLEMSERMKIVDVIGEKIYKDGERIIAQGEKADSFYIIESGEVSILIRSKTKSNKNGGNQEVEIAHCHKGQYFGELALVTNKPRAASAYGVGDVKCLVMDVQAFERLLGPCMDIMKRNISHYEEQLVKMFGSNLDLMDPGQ

- radiolabeled RIIα binding: prevent radiolabeled RIIα binding
Sequence: SFYANRLTNLVI (listed as Mus musculus)
